Laboratory results taken from US20130108623A1.

Assays:
[1] = target: FcγRIIa (H) variant (UniProt P12318); experiment: in vitro binding, method not stated for the single mutant
[2] = target: FcγRIIb (UniProt P31994); experiment: as above
Sequence of UniProt P31994 (P31994 43-217 limits assumed): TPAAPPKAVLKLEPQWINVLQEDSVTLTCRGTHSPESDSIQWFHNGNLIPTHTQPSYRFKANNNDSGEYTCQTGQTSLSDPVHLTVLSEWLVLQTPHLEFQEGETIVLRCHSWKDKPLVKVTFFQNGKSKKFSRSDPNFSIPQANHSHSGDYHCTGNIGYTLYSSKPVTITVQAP

Sequence of UniProt P12318 (P12318 34-217 limits assumed, change not shown): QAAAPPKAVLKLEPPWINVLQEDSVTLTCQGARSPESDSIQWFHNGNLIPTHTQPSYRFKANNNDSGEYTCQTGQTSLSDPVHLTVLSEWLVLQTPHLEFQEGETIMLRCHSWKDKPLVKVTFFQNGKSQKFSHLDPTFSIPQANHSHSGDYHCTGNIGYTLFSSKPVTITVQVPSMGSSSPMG

Substance: Fc variant D270N (single mutation) (antibody)
- fold reduction of binding against wild type [1]: 100 fold
- fold reduction of binding against wild type [2]: 100 fold

Substance: Fc variant K326E (single mutation) (antibody)
- fold improvement of binding against wild type [2]: 4 fold
